# d = 2'-deoxy (DNA); r = 2'-OH (RNA)
# How the values were obtained:
# Type in all cases: in vivo
# [1] = tested on: Glyphosate-sensitive Palmer amaranth (Amaranthus palmeri) plants; experiment: HPPD, PPO, TIF anti-sense ssDNA with mesotrione, fomesafen, atrazine, plant height (Example 28, Tables 18 and 19); details: for Plant height (mm): four days after herbicide treatment
# Protocol: The herbicidal activity of ssDNA polynucleotides that target the enzymes […] and protoporphyrinogen oxidase (PPO), and a transcription initiation factor (TIF), and their effect on the herbicide activity when used in combination with the herbicides mesotrione, fomesafen, and atrazine in Palmer amaranth was investigated.
# Glyphosate-sensitive Palmer amaranth (Amaranthus palmeri) plants were grown in 4-inch square pots with Sun Gro® Redi-Earth seedling mix containing 3.5 kg/cubic meter Osmocote® 14-14-14 fertilizer in a greenhouse with 14 h photoperiod and a daytime temperature of 30 degrees Celsius and night temperature of 20 degrees Celsius. The plants were sub-irrigated as necessary.
# Plants at 10 to 15 cm height were pre-treated manually with 40 microliters (4 fully expanded mature leaves were treated with 10 microliters of solution per leaf on each plant) of a buffer-surfactant solution (as a control; 0.5% Silwet L-77 and 2% ammonium sulfate), or a buffer-surfactant-ssDNA polynucleotide mixture of the anti-sense oligonucleotides targetting HPPD, PPO, or TIF. Some plants were left untreated and were used as controls. […] Crop oil concentrate (COC) at 1% was added to all herbicide treatments. A low rate of each herbicide ([…], equivalent to ⅛ of the recommended field rate; […], equivalent to 1/22 of the recommended field rate; […], equivalent to ⅛ of the recommended field rate,) was used to be able to detect any improvement of herbicide activity by the oligonucleotide mixture.
# Plant height was determined at four days after herbicide treatment. Data were collected from one experiment with four replications per treatment.
# Palmer amaranth = experiment: Combinations of EPSPS, TIF and ddATPase polynucleotides then glyphosate (Example 26, Tables 12 and 13)
# Protocol: Solutions of the polynucleotides were prepared and applied to the leaves of Palmer amaranth using the protocols described in Table 12.
# [2] = tested on: Palmer amaranth phytoene desaturase (PDS); experiment: Sequence specificity of PDS dsRNA on Palmer amaranth, bleaching (Example 11); details: for bleaching of leaves: 0.6 micromolar polynucleotide, 40 microliters per plant, observed 3 days post treatment; for bleaching of leaves (FIG. 17): separate assay
# Protocol: Palmer amaranth plants having 16 copies of EPSPS and 5-8 inches high were treated with 0.1% Silwet L-77 solution freshly made with ddH2O. Four fully expanded leaves per plant were dipped into the Silwet L-77 solution for a few seconds, and allowed to dry for 30 minutes to 1 hour before application of the polynucleotide composition. Individual polynucleotide solutions were made for each of the 678 by Palmer PDS dsRNA, 198 by Palmer PDS dsRNA, the 685 by Nicotiana benthamiana PDS dsRNA, and the 192 by Nicotiana benthamiana PDS dsRNA (0.6 micromolar polynucleotide in 0.01% Silwet L-77, 5 mM sodium phosphate buffer, pH 6.8). 10 microliters of polynucleotide solution (or buffer as a control) was applied to the top surface of each of the four pre-treated leaves per plant to provide a total of 40 microliters for each plant. Plants were kept in a growth chamber, and leaf bleaching was observed 3 days post treatment.
# [3] = tested on: mRNA encoding phytoene desaturase in tobacco (Nicotiana benthamiana); experiment: Topical PDS dsRNA on tobacco, bleaching (Example 4); details: for plant outcome: 15 days after treatment with dsRNA; for phytoene desaturase silencing, leaf bleaching: day 9 after dsRNA treatment, about 0.6 micromoles of dsRNA per plant; for Northern blot analysis, siRNAs corresponding to the dsRNAs: in vivo
# Description: This example illustrates the utility of the polynucleotide molecules of the invention as herbicidal agents. Two dsRNA polynucleotide molecules were designed to target overlapping segments of mRNA encoding phytoene desaturase in tobacco (Nicotiana benthamiana). With reference to SEQ ID NO:2 and FIG. 5, a dsRNA targeting a 192 nt length (shown in bold in FIG. 5) and a 685 nt length (shown in underline in FIG. 5) of the mRNA were made using an Ambion® MEGAscript® kit. Separate dsRNA solutions were prepared. Tobacco plant leaves were pretreated with surfactant solution prepared as in Example 1 and then treated with either one of the dsRNA solutions applying about […] of dsRNA per plant.
# [4] = pre-treatment: Untreated, herbicide only (mesotrione 13, fomesafen 23, atrazine 170 grams per hectare of active ingredient, 1% COC)
# [5] = pre-treatment: Buffer (0.5% Silwet L-77 and 2% ammonium sulfate), herbicide 24 h later (mesotrione 13, fomesafen 23 grams per hectare, 1% COC)
# [6] = protocol 3, 29 g/acre, copy number 16, 13 DAT
molecule,measurement,setting,value
CCNc1nc(Cl)nc(NC(C)C)n1 [atrazine],Plant height (mm),[1]; [4],146 mm
CS(=O)(=O)NC(=O)c1cc(Oc2ccc(C(F)(F)F)cc2Cl)ccc1[N+](=O)[O-] [fomesafen],Plant height (mm),[1]; [5],139 mm
same,Plant height (mm),[1]; [4],158 mm
CS(=O)(=O)c1ccc(C(=O)C2C(=O)CCCC2=O)c([N+](=O)[O-])c1 [mesotrione],Plant height (mm),[1]; [5],179 mm
same,Plant height (mm),[1]; [4],180 mm
"IDT [3]: Palmer/EPSPS dsRNA, SEQ ID NO. 87, 88 (chain 1 GGUCGACAACUUGCUGUAUAGUGA; chain 2 AUCACUAUACAGCAAGUUGUCGACCUC; chain 1: sugars from the 5' end r23 d1, 3' dT, backbone not given here; chain 2: RNA, backbone not given here)",Results: % stunted,Palmer amaranth; [6],51% stunted
"IDT [4]: Palmer/EPSPS dsRNA, SEQ ID NO. 89, 90 (chain 1 UGCAAGGUCACCUGGACAGAGAAA; chain 2 UAUUCUCUGUCCAGGUGACCUUGCAAC; listed as RNA, chemistry not fully specified)",Results: % stunted,Palmer amaranth; [6],51% stunted
"IDT [5]: Palmer/EPSPS dsRNA (21-mer) with blunt ends, SEQ ID NO. 91, 92 (chain 1 AACAUGAACAAAAUGCCAGAU; chain 2 AUCUGGCAUUUUGUUCAUGUU; RNA, backbone not given here)",Results: % stunted,"Palmer amaranth; protocol 1, 0.29 g/acre, copy number 33, 54, 55, 18 DAT",71%
same,Results: % stunted,"Palmer amaranth; protocol 1, 0.29 g/acre, copy number 34, 36, 54, 22 DAT",14.1%
same,Results: % killed,"Palmer amaranth; protocol 1, 2.9 g/acre each, copy number 34, 36, 54, 22 DAT",100% kill
same,Results: % killed,"Palmer amaranth; protocol 1, 2.9 g/acre, copy number 33, 54, 55, 18 DAT",100% killed
"HPPD anti-sense ssDNA oligonucleotides: 8 HPPD anti-sense ssDNA oligonucleotides (SEQ ID NOS:141-148) (nucleic acid, DNA, backbone not given here) antisense 1: TCCGTAGCTTACATACCGAAG antisense 2: TCCAAGTGAATAGGAGAAACA antisense 3: AGCAGCTTCTGCGTCTTCTAC antisense 4: ACAGCACGCACGCCAAGACCG antisense 5: CGATGTAAGGAATTTGGTAAA antisense 6: CGAGGGGATTGCAGCAGAAGA antisense 7: GTAGGAGAATACGGTGAAGTA antisense 8: GACCCCAAGAAAATCGTCTGC",growth reduction relative to the buffer-surfactant control,[1]; ssDNA pre-treatment without herbicide,32%
same,Palmer amaranth plant height,"[1]; ssDNA pre-treatment without herbicide, 40 microliters per plant in 0.5% Silwet L-77 and 2% ammonium sulfate, buffer-surfactant control 185 mm",125 mm
"678 by Palmer PDS dsRNA: dsRNA to positions 317-994 of SEQ ID NO:37 (nucleic acid, listed as Amaranthus palmeri, complementary strand) sense: TAGGAGGAAAGGTTGCAGCGTGGAAGGATGAGGATGGTGACTGGTATGAGACTGGGCTACATATATTCTTTGGGGCATATCCAAATGTCCAAAATCTATTTGGAGAACTTGGTATAAATGACCGACTGCAATGGAAGGAGCACTCTATGATTTTTGCAATGCCCAGCAAGCCCGGTGAATTCAGTCGCTTTGATTTTCCCGAAATCCTGCCTGCACCATTAAATGGCATATGGGCAATCCTAAGAAATAATGAAATGCTAACCTGGCCAGAAAAAATCAAGTTTGCCATTGGCTTGTTGCCTGCTATGGCAGGCGGACAGTCATATGTTGAAGCACAAGATGGTTTGAGTGTCCAAGAGTGGATGAGAAAACAAGGAGTACCCGATCGTGTAACTGATGATGTGTTTATTGCCATGTCAAAGGCACTGAACTTCATAAATCCCGATGAACTTTCAATGCAGTGCATCTTGATTGCTCTGAACCGATTCCTGCAGGAGAAACATGGTTCTAAGATGGCCTTCCTAGACGGAAACCCTCCAGAGAGGCTGTGCATGCCTATTGTTAAACACATCGAGTCACTAGGTGGTGAAGTTAAACTTAACTCTCGTATACAAAAGATTCAGTTGGACCAGAGTGGAAGCGTGAAGAGTTTTTTGCTAAATAACGGGAGGGAAATAC",bleaching of leaves,[2],showed bleaching of leaves
same,bleaching of leaves (FIG. 17),[2],showed bleaching of leaves
"dsRNA targeting a 685 nt length: dsRNA to Nicotiana benthamiana PDS, positions 421-1105 of SEQ ID NO:38 (nucleic acid, listed as Nicotiana benthamiana, dsRNA of this region) DNA: GCAAGAGATGTCCTAGGTGGGAAGGTAGCTGCATGGAAAGATGATGATGGAGATTGGTACGAGACTGGGTTGCACATATTCTTTGGGGCTTACCCAAATATGCAGAACCTGTTTGGAGAACTAGGGATTGATGATCGGTTGCAGTGGAAGGAACATTCAATGATATTTGCGATGCCTAACAAGCCAGGGGAGTTCAGCCGCTTTGATTTTCCTGAAGCTCTTCCTGCGCCATTAAATGGAATTTTGGCCATACTAAAGAACAACGAAATGCTTACGTGGCCCGAGAAAGTCAAATTTGCTATTGGACTCTTGCCAGCAATGCTTGGAGGGCAATCTTATGTTGAAGCTCAAGACGGTTTAAGTGTTAAGGACTGGATGAGAAAGCAAGGTGTGCCTGATAGGGTGACAGATGAGGTGTTCATTGCCATGTCAAAGGCACTTAACTTCATAAACCCTGACGAGCTTTCGATGCAGTGCATTTTGATTGCTTTGAACAGATTTCTTCAGGAGAAACATGGTTCAAAAATGGCCTTTTTAGATGGTAACCCTCCTGAGAGACTTTGCATGCCGATTGTGGAACATATTGAGTCAAAAGGTGGCCAAGTCAGACTAAACTCACGAATAAAAAAGATCGAGCTGAATGAGGATGGAAGTGTCAAATGTTTTATACTGAATAATGGCAGTA",bleaching of leaves,[2],did not show bleaching of leaves
same,plant outcome,[3],one half of the treated plants appeared to be dead and the other half of the plants had most of the above ground tissues bleached
same,"phytoene desaturase silencing, leaf bleaching",[3],visible leaf bleaching on apical leaves
same,"Northern blot analysis, siRNAs corresponding to the dsRNAs",[3],presence of siRNAs
"198 by Palmer PDS dsRNA: dsRNA to positions 797-994 of SEQ ID NO:37 (nucleic acid, listed as Amaranthus palmeri, complementary strand) sense: ACCGATTCCTGCAGGAGAAACATGGTTCTAAGATGGCCTTCCTAGACGGAAACCCTCCAGAGAGGCTGTGCATGCCTATTGTTAAACACATCGAGTCACTAGGTGGTGAAGTTAAACTTAACTCTCGTATACAAAAGATTCAGTTGGACCAGAGTGGAAGCGTGAAGAGTTTTTTGCTAAATAACGGGAGGGAAATAC",bleaching of leaves,[2],showed bleaching of leaves
same,bleaching of leaves (FIG. 17),[2],showed bleaching of leaves
"dsRNA targeting a 192 nt length: dsRNA to Nicotiana benthamiana PDS, positions 914-1105 of SEQ ID NO:38 (nucleic acid, listed as Nicotiana benthamiana, dsRNA of this region) DNA: ACAGATTTCTTCAGGAGAAACATGGTTCAAAAATGGCCTTTTTAGATGGTAACCCTCCTGAGAGACTTTGCATGCCGATTGTGGAACATATTGAGTCAAAAGGTGGCCAAGTCAGACTAAACTCACGAATAAAAAAGATCGAGCTGAATGAGGATGGAAGTGTCAAATGTTTTATACTGAATAATGGCAGTA",bleaching of leaves,[2],did not show bleaching of leaves
same,plant outcome,[3],one half of the treated plants appeared to be dead and the other half of the plants had most of the above ground tissues bleached
same,"phytoene desaturase silencing, leaf bleaching",[3],visible leaf bleaching on apical leaves
same,"Northern blot analysis, siRNAs corresponding to the dsRNAs",[3],presence of siRNAs
